Assay results published in paper PMC5992430, “C-Reactive Protein (CRP) and Leptin Receptor in Obesity: Binding of Monomeric CRP to Leptin Receptor” (Frontiers in Immunology, 2018).

Molecular target: T1, Soluble recombinant human leptin receptor (human, UniProt P48357 22-839)
T1 construct: leptin receptor (Ob R), human, soluble recombinant form; PDB 3V6O (CRH2 domain) was used only for docking; also called recombinant leptin receptor; Ob R; source: bought: Thermo Fischer, USA (synthesized in Escherichia coli)
T1 sequence (looked up): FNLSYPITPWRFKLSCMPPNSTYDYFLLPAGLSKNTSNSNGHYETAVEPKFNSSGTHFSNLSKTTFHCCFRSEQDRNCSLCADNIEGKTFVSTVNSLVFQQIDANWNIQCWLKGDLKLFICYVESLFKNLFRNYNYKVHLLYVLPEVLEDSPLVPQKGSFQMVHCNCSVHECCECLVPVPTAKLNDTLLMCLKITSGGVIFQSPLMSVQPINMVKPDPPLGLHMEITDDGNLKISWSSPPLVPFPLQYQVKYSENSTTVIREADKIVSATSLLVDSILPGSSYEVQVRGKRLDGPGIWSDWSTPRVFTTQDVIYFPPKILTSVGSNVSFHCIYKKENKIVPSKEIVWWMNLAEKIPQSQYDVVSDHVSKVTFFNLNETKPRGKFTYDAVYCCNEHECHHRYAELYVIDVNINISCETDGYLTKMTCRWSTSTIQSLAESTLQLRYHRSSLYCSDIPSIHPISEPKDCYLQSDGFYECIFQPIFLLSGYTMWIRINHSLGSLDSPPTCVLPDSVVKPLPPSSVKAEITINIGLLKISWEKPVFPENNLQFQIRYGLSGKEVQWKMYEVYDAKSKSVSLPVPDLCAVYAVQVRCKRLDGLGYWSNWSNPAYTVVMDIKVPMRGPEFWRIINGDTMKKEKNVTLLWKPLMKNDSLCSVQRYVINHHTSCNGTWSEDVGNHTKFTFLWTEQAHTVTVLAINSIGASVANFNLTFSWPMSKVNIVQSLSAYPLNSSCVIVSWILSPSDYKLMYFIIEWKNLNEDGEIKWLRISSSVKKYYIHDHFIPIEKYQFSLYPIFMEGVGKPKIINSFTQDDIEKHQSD
Test: ELISA; solid phase binding assay; CRP forms or control proteins coated on a 96-well plate at 4°C overnight in Tris/HCl 0.05 M pH 7.4 (different concentrations, or 0.6 µg/ml for Figure 5B); blocked with 0.5% gelatin; leptin receptor 100 ng/ml in 50 µl PBS added for 1 h at RT; detected with anti-Ob R antibody and HRP anti-rabbit IgG
Details: both partners purified

Kd: 10.2 nM
B1: Monomeric CRP prepared from human serum CRP (natural protein, UniProt P02741 19-224, looked up)
chain: QTDMSRKAFVFPKESDTSYVSLKAPLTKPLKAFTVCLHFYTELSSTRGYSIFSYATKRQDNEILIFWSKDIGYSFTVGGSEILFEVPEVTVAPVHICTSWESASGIVEFWVDGKPRVRKSLKKGYTVGAEASIILGQEQDSFGGNFEGSQSLVGDIGNVNMWDFVLSPDEINTIYLGGPFSPNVLNWRALKYEVQGEVFTKPQLWP
notes: C-reactive protein, human, from serum; protomer of 206 amino acid residues as printed in the introduction; dissociated to the monomer with urea/EDTA; Same chain as native CRP, dissociated to monomers; also called s-mCRP; human mCRP; source: bought: Thermo Fischer, USA (human CRP); made monomeric with 8 M urea/10 mM EDTA at 37°C for 2 h
